Reference: patent publication US20160158332A1 (US Dept. of Health and Human Services, published 2016)
Ends that are not written are not given here.

Target: T1, recombinant EcPyAMA1 (P. yoelii YM AMA1 residues 59-479 with a C-terminal histidine tag, E. coli, refolded) (Plasmodium yoelii YM)
T1 construct: not shown: C-terminal histidine tag
T1 chain: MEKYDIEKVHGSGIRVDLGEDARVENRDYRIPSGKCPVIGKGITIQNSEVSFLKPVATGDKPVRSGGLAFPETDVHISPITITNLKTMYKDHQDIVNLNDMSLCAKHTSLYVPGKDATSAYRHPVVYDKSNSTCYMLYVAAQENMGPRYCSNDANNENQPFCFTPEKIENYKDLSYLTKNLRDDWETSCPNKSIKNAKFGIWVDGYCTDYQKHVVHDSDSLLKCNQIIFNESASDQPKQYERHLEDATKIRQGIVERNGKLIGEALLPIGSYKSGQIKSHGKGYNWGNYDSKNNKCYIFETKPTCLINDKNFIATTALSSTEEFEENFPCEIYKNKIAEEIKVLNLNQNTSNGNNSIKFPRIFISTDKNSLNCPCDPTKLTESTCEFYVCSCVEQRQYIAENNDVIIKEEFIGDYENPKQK
Assay: binding of RON2L peptide to PyAMA1, FIG. 3E

B1: PyRON2L peptide with the two cysteines mutated to alanines (Cys 1856 and 1868 to Ala) (peptide)
peptide: DITQHATDIGMGPSTSAYTSLLPPPKSIAIQQTVKTVLTNSTLASMK-NH2
notes: they are the two cysteines of the peptide; also called RON2Lc/a; c/a
- binding result: no binding
